Our source for the activity values is patent publication US20220195407, “OPTIMIZATION OF ENGINEERED MEGANUCLEASES FOR RECOGNITION SEQUENCES” (Precision BioSciences, Inc., published 2022).

Common to all, as to experiment: cell_activity; CHO iGFFP reporter
The target in one data set is T1, LOX 3-4m.1941 (artificial (I-CreI derived)).
T1 chain: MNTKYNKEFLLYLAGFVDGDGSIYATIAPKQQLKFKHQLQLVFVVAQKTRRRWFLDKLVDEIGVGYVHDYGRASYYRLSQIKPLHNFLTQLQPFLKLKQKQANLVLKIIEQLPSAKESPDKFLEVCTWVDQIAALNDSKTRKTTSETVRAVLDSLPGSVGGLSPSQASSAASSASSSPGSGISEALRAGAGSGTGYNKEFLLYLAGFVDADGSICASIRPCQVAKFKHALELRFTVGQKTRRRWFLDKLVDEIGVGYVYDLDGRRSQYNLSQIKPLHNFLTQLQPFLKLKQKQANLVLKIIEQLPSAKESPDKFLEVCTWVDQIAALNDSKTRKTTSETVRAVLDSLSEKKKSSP
The source says:
(§1) A CHO cell reporter system (see WO/2012/167192, FIG. 3) was used to determine whether the engineered meganucleases generated in these studies could recognize and cleave the modified LOX 3-4 recognition sequences in Table 87. To perform the assay, a pair of CHO cell reporter lines were produced, which carried a non-functional Green Fluorescent Protein (GFP) gene expression cassette integrated into the genome of the cell. The GFP gene in each cell line was interrupted by a pair of recognition sequences such that intracellular cleavage of either recognition sequence by a meganuclease would stimulate a homologous recombination event resulting in a functional GFP gene. In both cell lines, one of the recognition sequences was derived from the LOX 3-4 recognition sequence (i.e., those sequences disclosed in Table 87), and the second recognition sequence was specifically recognized by a control meganuclease called “CHO 23/24.” CHO reporter cells comprising a recognition sequence derived from the LOX 3-4 recognition sequence and the CHO 23/24 recognition sequence are referred to herein as “test cells.”
(§2) Novel engineered meganucleases derived from the LOX 3-4x.109 meganuclease were prepared by making amino acid substitutions at one or more positions in the first subunit and one or more positions in the second subunit. In addition, an R residue was inserted following position 264, which corresponds to position 73 of wild-type I-CreI.

A further data set concerns the target T2, LOX 3-4m.1947 (artificial (I-CreI derived)).
T2 chain: T1 chain
Description: as §1, §2

The target in another data set is T3, LOX 3-4m.1876 (artificial (I-CreI derived)).
T3 chain: T1 chain
Description: as §1, §2

Another data set deals with T4, LOX 3-4m.1946 (artificial (I-CreI derived)).
T4 chain: T1 chain
Description: as §1, §2

A further data set has as its target T5, LOX 3-4m.1158 (artificial (I-CreI derived)).
T5 chain: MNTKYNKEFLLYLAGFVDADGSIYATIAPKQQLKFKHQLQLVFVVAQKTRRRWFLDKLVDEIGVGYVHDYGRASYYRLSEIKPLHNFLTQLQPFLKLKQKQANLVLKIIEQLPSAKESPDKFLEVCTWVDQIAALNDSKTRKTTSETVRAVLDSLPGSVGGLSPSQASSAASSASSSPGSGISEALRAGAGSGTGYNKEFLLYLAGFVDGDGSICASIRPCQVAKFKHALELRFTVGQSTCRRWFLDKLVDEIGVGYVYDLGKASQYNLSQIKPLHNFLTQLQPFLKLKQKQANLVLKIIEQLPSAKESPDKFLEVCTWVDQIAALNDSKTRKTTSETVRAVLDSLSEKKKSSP
Description: as §1
(§3) Novel engineered meganucleases derived from the LOX 3-4x.109 meganuclease were prepared by making amino acid substitutions at one or more positions in the first subunit and one or more positions in the second subunit. These engineered meganucleases were then evaluated for cleavage of the LOX 3-4 recognition sequence modified to have an ACGT center sequence (SEQ ID NO: 136) in the CHO reporter assay according to Example 1.

In another data set the target is T6, LOX 3-4m.1153 (artificial (I-CreI derived)).
T6 chain: T5 chain with R50C, E80Q, C241E, S265A
Description: as §1, §3

In the next data set the target is T7, LOX 3-4m.1225 (artificial (I-CreI derived)).
T7 chain: T5 chain with R50C, E80Q, C241A, K263R, S265A
Description: as §1, §3

A further data set has as its target T8, LOX 3-4m.1206 (artificial (I-CreI derived)).
T8 chain: T5 chain with A19G, R50C, E80Q, G210A, C241E, A264C, S265T
Description: as §1, §3

The next data set addresses T9, LOX 3-4m.1125 (artificial (I-CreI derived)).
T9 chain: T5 chain with A19G, E80Q, G210A, S239L, C241E, K263R, A264V, S265A
Description: as §1
(§4) Novel engineered meganucleases derived from the LOX 3-4x.109 meganuclease were prepared by making amino acid substitutions at one or more positions in the first subunit and one or more positions in the second subunit. These engineered meganucleases were then evaluated for cleavage of the LOX 3-4 recognition sequence modified to have an ACGC center sequence (SEQ ID NO: 90) in the CHO reporter assay according to Example 1.

The target in another data set is T10, LOX 3-4m.1123 (artificial (I-CreI derived)).
T10 chain: T5 chain with K48S, S239H, C241K, E252Q, K263R, A264I, S265T, K330H
Description: as §1, §4

A further data set has as its target T11, LOX 3-4m.1052 (artificial (I-CreI derived)).
T11 chain: T5 chain with E80Q, S239K, C241S, G262K, K263R, A264I, S265A, K330N
Description: as §1, §4

In a further data set the target is T12, LOX 3-4m.1069 (artificial (I-CreI derived)).
T12 chain: T5 chain with G71R, E80Q, S239K, C241E, K263R, A264V, S265A, Q271E, K330R
Description: as §1, §4

Changes are numbered by the printed parent chain.

B1: LOX 3-4 ACGG (dsDNA)
DNA 1: GTATAGCATACGGTATACGAAG
DNA 2: CTTCGTATACCGTATGCTATAC
Consider B1, for which the activity in the data set with LOX 3-4m.1941 worked out at 10.1 % GFP; with LOX 3-4m.1947 it was 10.5 % GFP; in the data set with LOX 3-4m.1876, 9.6 % GFP; with LOX 3-4m.1946, 10.8 % GFP.

B2: LOX 3-4 ACGT (dsDNA)
DNA 1: GTATAGCATACGTTATACGAAG
DNA 2: CTTCGTATAACGTATGCTATAC
On to B2, for which the activity with LOX 3-4m.1158 was found to be 9.19 % GFP; in the data set with LOX 3-4m.1153 it was 10.3 % GFP; with LOX 3-4m.1225, 10.6 % GFP; with LOX 3-4m.1206 it was 9.84 % GFP.

B3: LOX 3-4 ACGC (dsDNA)
DNA 1: GTATAGCATACGCTATACGAAG
DNA 2: CTTCGTATAGCGTATGCTATAC
As for B3, the activity with LOX 3-4m.1125 is 10.4 % GFP; with LOX 3-4m.1123, 9.56 % GFP; with LOX 3-4m.1052, 9.34 % GFP; in the data set with LOX 3-4m.1069, 10.3 % GFP.
